We go through two molecules from publication PMC11602657, “Nap1 and Kap114 co-chaperone H2A-H2B and facilitate targeted histone release in the nucleus” (The Journal of Cell Biology, 2024).

The chains are these.
B1: Kap114 (receptor, S. cerevisiae)
chain: MDINELIIGAQSADKHTREVAETQLLQWCDSDASQVFKALANVALQHEASLESRQFALLSLRKLITMYWSPGFESYRSTSNVEIDVKDFIREVLLKLCLNDNENTKIKNGASYCIVQISAVDFPDQWPQLLTVIYDAISHQHSLNAMSLLNEIYDDVVSEEMFFEGGIGLATMEIVFKVLNTETSTLIAKIAALKLLKACLLQMSSHNEYDEASRKSFVSQCLATSLQILGQLLTLNFGNVDVISQLKFKSIIYENLVFIKNDFSRKHFSSELQKQFKIMAIQDLENVTHINANVETTESEPLLETVHDCSIYIVEFLTSVCTLQFSVEEMNKIITSLTILCQLSSETREIWTSDFNTFVSKETGLAASYNVRDQANEFFTSLPNPQLSLIFKVVSNDIEHSTCNYSTLESLLYLLQCILLNDDEITGENIDQSLQILIKTLENILVSQEIPELILARAILTIPRVLDKFIDALPDIKPLTSAFLAKSLNLALKSDKELIKSATLIAFTYYCYFAELDSVLGPEVCSETQEKVIRIINQVSSDAEEDTNGALMEVLSQVISYNPKEPHSRKEILQAEFHLVFTISSEDPANVQVVVQSQECLEKLLDNINMDNYKNYIELCLPSFINVLDSNNANNYRYSPLLSLVLEFITVFLKKKPNDGFLPDEINQYLFEPLAKVLAFSTEDETLQLATEAFSYLIFNTDTRAMEPRLMDIMKVLERLLSLEVSDSAAMNVGPLVVAIFTRFSKEIQPLIGRILEAVVVRLIKTQNISTEQNLLSVLCFLTCNDPKQTVDFLSSFQIDNTDALTLVMRKWIEAFEVIRGEKRIKENIVALSNLFFLNDKRLQKVVVNGNLIPYEGDLIITRSMAKKMPDRYVQVPLYTKIIKLFVSELSFQSKQPNPEQLITSDIKQEVVNANKDDDNDDWEDVDDVLDYDKLKEYIDDDVDEEADDDSDDITGLMDVKESVVQLLVRFFKEVASKDVSGFHCIYETLSDSERKVLSEALL
notes: also called Sc Kap114; source: E. coli, expressed as GST-Kap114, purified (Glutathione Sepharose 4B, on-column TEV cleavage, SEC)
B2: Nap1 core (residues 75–365) (domain or fragment, S. cerevisiae, UniProt P25293 75-365, looked up)
chain: GSLVGQDSGYVGGLPKNVKEKLLSLKTLQSELFEVEKEFQVEMFELENKFLQKYKPIWEQRSRIISGQEQPKPEQIAKGQEIVESLNETELLVDEEEKAQNDSEEEQVKGIPSFWLTALENLPIVCDTITDRDAEVLEYLQDIGLEYLTDGRPGFKLLFRFDSSANPFFTNDILCKTYFYQKELGYSGDFIYDHAEGCEISWKDNAHNVTVDLEMRKQRNKTTKQVRTIEKITPIESFFNFFDPPKIQNEDQDEELEEDLEERLALDYSIGEQLKDKLIPRAVDWFTGAAL
notes: Nap1 (nucleosome assembly protein 1), S. cerevisiae, core, residues 75–365; pET15b vector, gift from Karolin Luger; The His tag is said to be removed only for pull-down assays; also called His-Nap1 core; Nap1 core dimer; source: E. coli, purified (nickel-NTA, ion exchange, SEC)

The target in series [1] is B2. Nature of the series: AUC; sedimentation velocity; Kap114 titrated into the Nap1 core dimer; isotherm with one-site model; 20 mM Tris-HCl pH 7.5, 150 mM NaCl, 2 mM MgCl2, 2 mM TCEP. The note with it: both partners purified.
For series [2], the target named is T1, Nap1 core (residues 75–365) (S. cerevisiae, UniProt P25293 75-365).
T1 chain: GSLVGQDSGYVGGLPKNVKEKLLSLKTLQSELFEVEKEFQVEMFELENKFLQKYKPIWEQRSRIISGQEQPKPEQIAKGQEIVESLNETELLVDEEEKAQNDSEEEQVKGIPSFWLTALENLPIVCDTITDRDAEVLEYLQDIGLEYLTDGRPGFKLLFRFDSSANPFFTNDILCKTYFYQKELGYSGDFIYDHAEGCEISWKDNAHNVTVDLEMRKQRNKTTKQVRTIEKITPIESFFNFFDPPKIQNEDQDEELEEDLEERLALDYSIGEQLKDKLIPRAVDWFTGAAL
Nature of the series: AUC.

Series [3] concerns the molecule itself. Nature of the series: cryo-EM structure; Nap1 core dimer:H2A-H2B 1:2, then 1 molar ratio Kap114, 0.05% glutaraldehyde 1 min, SEC; no Ran^GTP; gave Nap1_(2), Kap114•H2A-H2B and two ternary assemblies.
For the series “Kap114”, the target named is B1. Nature of the series: AUC; sedimentation velocity c(s) of Kap114, Nap1_(2) core and Ran^GTP alone and in mixtures at indicated molar ratios; 20 mM Tris-HCl pH 7.5, 150 mM NaCl, 2 mM MgCl2, 2 mM TCEP. Particulars: both partners purified.

On to B1, for which the stoichiometry N – broadly, a count of units in the complex or per binding partner – in series [1] amounted to 1. Moreover, binding in series [2] was put at a Kd of 1040 nM.

On to B2, for which the binding result (in series [3]; with Kap114) was “binds” in each case.
